{"source": "IntAct's records for PubMed 17563362", "parents": {"B1": {"name": "CAP-Gly domain-containing linker protein 1 (Homo sapiens), P30622-2 (parent)", "chain": "MSMLKPSGLKAPTKILKPGSTALKTPTAVVAPVEKTISSEKASSTPSSETQEEFVDDFRVGERVWVNGNKPGFIQFLGETQFAPGQWAGIVLDEPIGKNDGSVAGVRYFQCEPLKGIFTRPSKLTRKVQAEDEANGLQTTPASRATSPLCTSTASMVSSSPSTPSNIPQKPSQPAAKEPSATPPISNLTKTASESISNLSEAGSIKKGERELKIGDRVLVGGTKAGVVRFLGETDFAKGEWCGVELDEPLGKNDGAVAGTRYFQCQPKYGLFAPVHKVTKIGFPSTTPAKAKANAVRRVMATTSASLKRSPSASSLSSMSSVASSVSSRPSRTGLLTETSSRYARKISGTTALQEALKEKQQHIEQLLAERDLERAEVAKATSHVGEIEQELALARDGHDQHVLELEAKMDQLRTMVEAADREKVELLNQLEEEKRKVEDLQFRVEEESITKGDLEVATVSEKSRIMELEKDLALRVQEVAELRRRLESNKPAGDVDMSLSLLQEISSLQEKLEVTRTDHQREITSLKEHFGAREETHQKEIKALYTATEKLSKENESLKSKLEHANKENSDVIALWKSKLETAIASHQQAMEELKVSFSKGLGTETAEFAELKTQIEKMRLDYQHEIENLQNQQDSERAAHAKEMEALRAKLMKVIKEKENSLEAIRSKLDKAEDQHLVEMEDTLNKLQEAEIKVKELEVLQAKCNEQTKVIDNFTSQLKATEEKLLDLDALRKASSEGKSEMKKLRQQLEAAEKQIKHLEIEKNAESSKASSITRELQGRELKLTNLQENLSEVSQVKETLEKELQILKEKFAEASEEAVSVQRSMQETVNKLHQKEEQFNMLSSDLEKLRENLADMEAKFREKDEREEQLIKAKEKLENDIAEIMKMSGDNSSQLTKMNDELRLKERDVEELQLKLTKANENASFLQKSIEDMTVKAEQSQQEAAKKHEEEKKELERKLSDLEKKMETSHNQCQELKARYERATSETKTKHEEILQNLQKTLLDTEDKLKGAREENSGLLQELEELRKQADKAKAAQTAEDAMQIMEQMTKEKTETLASLEDTKQTNAKLQNELDTLKENNLKNVEELNKSKELLTVENQKMEEFRKEIETLKQAAAQKSQQLSALQEENVKLAEELGRSRDEVTSHQKLEEERSVLNNQLLEMKKRESKFIKDADEEKASLQKSISITSALLTEKDAELEKLRNEVTVLRGENASAKSLHSVVQTLESDKVKLELKVKNLELQLKENKRQLSSSSGNTDTQADEDERAQESQIDFLNSVIVDLQRKNQDLKMKVEMMSEAALNGNGDDLNNYDSDDQEKQSKKKPRLFCDICDCFDLHDTEDCPTQAQMSEDPPHSTHHGSRGEERPYCEICEMFGHWATNCNDDETF"}}}
{"variants_of": "B1", "settings": "with mare1_human MAPRE1, Q15691"}
{"variant": "K277A", "effect of a mutation on the interaction": "decreasing interaction strength"}
{"variant": "K224A", "effect of a mutation on the interaction": "disrupting interaction strength"}
{"variant": "K252A", "effect of a mutation on the interaction": "disrupting interaction strength"}
{"variants_of": "B1", "settings": "with tba1a_human TUBA1A"}
{"variant": "N253A", "effect of a mutation on the interaction": "decreasing interaction strength"}
{"variant": "N253D", "effect of a mutation on the interaction": "decreasing interaction strength"}
